Assay results taken from patent US20120065146A1.
Non-standard residues stand in square brackets, D forms with d. No end group written: not given here. pT = C[C@@H](OP(=O)(O)O)[C@H](N)C(=O)O

Biological target: HA-EGFP-Plk1, P53350
Test: ELISA competition
Conditions: remark: other sources report otherwise

Sequence of HA-EGFP-Plk1, P53350 (P53350 whole entry): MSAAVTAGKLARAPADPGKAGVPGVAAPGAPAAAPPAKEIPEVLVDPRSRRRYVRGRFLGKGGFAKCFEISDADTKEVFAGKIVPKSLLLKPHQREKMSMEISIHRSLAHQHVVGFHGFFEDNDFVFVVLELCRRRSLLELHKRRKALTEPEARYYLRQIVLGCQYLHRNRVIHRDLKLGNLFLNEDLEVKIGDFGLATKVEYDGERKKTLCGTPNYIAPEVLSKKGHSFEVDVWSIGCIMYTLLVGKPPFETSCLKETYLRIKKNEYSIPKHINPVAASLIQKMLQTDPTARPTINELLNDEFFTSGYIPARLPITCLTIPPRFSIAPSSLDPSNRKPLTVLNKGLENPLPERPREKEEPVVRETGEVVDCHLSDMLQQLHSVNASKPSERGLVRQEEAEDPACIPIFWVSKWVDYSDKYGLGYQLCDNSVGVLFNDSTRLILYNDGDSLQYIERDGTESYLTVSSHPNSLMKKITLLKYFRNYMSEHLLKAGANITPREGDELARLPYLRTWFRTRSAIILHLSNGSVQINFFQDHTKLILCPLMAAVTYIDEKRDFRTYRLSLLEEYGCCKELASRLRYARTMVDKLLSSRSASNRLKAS

Q: For PLHA[pT] (also: Pro 1 modified as in ether analogue 7 (structure not given here)) [peptide 9 (Example 12), S/A mutant of 7], which fold loss of binding affinity is on record?
A: > 100 fold

Q: PLHA[pT] (also: Pro 1 modified as in ether analogue 8 (structure not given here)) [peptide 11 (Example 12), S/A mutant of 8] was tested. Which fold loss of binding affinity did it give?
A: > 100 fold

Q: How did the fold decrease in binding against 3l turn out when PLHA[pT] (also: further groups not given here) [peptide 5 (Example 15), S/A mutant of 3l] was run?
A: 100 fold
